Publication PMC3215728

Legend:
[1] = target: Endogenous dysferlin from rabbit skeletal muscle (rabbit (endogenous in skeletal muscle)); test: cross-linking; rabbit skeletal muscle microsomes with or without 100 µM o-PDM on ice for 30 min; SDS-PAGE and western blot
[2] = target: His6-tagged dysferlin (human) (UniProt O75923); test: SEC; Superose 6 HR 10/30 FPLC; mobile phase 1% CHAPS, 150 mM NaCl, 50 mM Tris pH 7.5, 0.4 ml/min; fractions blotted with Hamlet antibody; monomer to dimer; details: remark: other sources report otherwise
[3] = target: CFP-dysferlin / YFP-dysferlin (full-length human dysferlin) expressed in mouse FDB muscle fibers (human) (UniProt O75923); test: FRET or BRET; acceptor-selective photobleaching FRET between CFP-dysferlin and YFP-dysferlin in living FDB muscle fibers isolated from electroporated dysferlin-deficient mice; details: remark: other sources report otherwise
[4] = target: CFP-dysferlin / YFP-dysferlin (full-length human dysferlin) expressed in HEK293 cells (human) (UniProt O75923); test: FRET or BRET; acceptor-selective photobleaching FRET between CFP- and YFP-tagged copies in living HEK293 cells; linearity of donor against acceptor for stoichiometry; hyperbolic fit of FRET against YFP intensity gives FRETmax and KD in arbitrary units; details: remark: other sources report otherwise
[5] = target: CFP-dysferlin / YFP-dysferlin (full-length human dysferlin) expressed in HEK293 cells (human) (UniProt O75923); test: fluorescence correlation spectroscopy (FCS); YFP-dysferlin diffusing in detergent solution, 1% CHAPS or 0.5% DDM; single species diffusion model; details: remark: other sources report otherwise
[6] = target: CFP-dysferlin / YFP-dysferlin (full-length human dysferlin) expressed in HEK293 cells (human) (UniProt O75923); test: FRET or BRET; three-cube fluorescence microscopy (E-FRET), pixel by pixel, CFP-dysferlin and YFP-dysferlin in living HEK293 cells; details: remark: other sources report otherwise
[7] = target: CFP-dysferlin / YFP-dysferlin (full-length human dysferlin) expressed in HEK293 cells (human) (UniProt O75923); test: photon counting histogram (PCH); detergent solubilized YFP-dysferlin in CHAPS or DDM; molecular brightness normalised to monomeric YFP; details: remark: other sources report otherwise
[8] = target: CFP-dysferlin / YFP-dysferlin (full-length human dysferlin) expressed in HEK293 cells (human) (UniProt O75923); test: fluorescence correlation spectroscopy (FCS); YFP-dysferlin diffusing in detergent solution, Triton X-100; 2-species fit; details: remark: other sources report otherwise

Which stoichiometry N [1] does the source give for “Endogenous dysferlin from rabbit skeletal muscle (natural protein)” here?
Its stoichiometry N is 2.

Which stoichiometry N [2] does the source give for His6-tagged dysferlin, O75923 1-2080 here?
The stoichiometry N was 2.

“CFP-dysferlin / YFP-dysferlin (full-length human dysferlin) expressed in mouse FDB muscle fibers, O75923 1-2080” was tested. Which FRETmax [3] did it give?
The FRETmax was 33.3%.

And the stoichiometry N [3]?
Its stoichiometry N is 2.

What does the source list for “CFP-dysferlin / YFP-dysferlin (full-length human dysferlin) expressed in HEK293 cells, O75923 1-2080”?
FRETmax [4]: 26.8%; stoichiometry N [4]: 2; stoichiometry N [5]: 2; FRET efficiency [6]: 20.6%; stoichiometry N [7]: 2; percent of molecules diffusing as the slower (dimer) species [8]: 17%
